# Measurements reported in the DeepSol protein solubility set.
# Assay: soluble on expression in E. coli; label from the status in PepcDB or PDB records
row,Sequence,soluble on expression in E. coli
1,MSLQTCVLHRLSLPLKFPMRTAHGHIREKQAILVQLVDADGIEGWSECVALAEPTYTEECTDTAWVMLVHHLVPRFARWLRAASQDQDVDPRTVCEALRDVRGNRMSVAAIEMAVWDWYAARTGQPLVGLLGGGRDRVEVSATLGMSESLDVLIQSVDAAVEQGFRRVKLKIAPGRDRAAIKAVRLRYPDLAIAADANGSYRPEDAPVLRQLDAYDLQFIEQPLPEDDWFDLAKLQASLRTPVCLDESVRSVRELKLTARLGAARVLNVKPGRLGGFGATLRALDVAGEAGMAAWVGGMYETGVGRVHGLIAAALPLMRYATDLGPSDRYFEQDVLKEPIAFVEPGVIQVPQCAGVADWVDRDAVRRFSTATWSVDLRTLEGHHHHHH,soluble
2,MSLRDISILLAEDESELRELLHEYLQLFFGRVYAATSGDQAYDIYKQKKPDIIITDISMPNLDGLEMISKIRESDKETKIIVMSAHSEQERLLLAIKLNLESYLIKPIKTEALKTILLDIVKHLREKSRRTYVTENIYWEHETNTLWGNSKEIKLRKMESMLLKLLFSRPNEIFSTKEIFDYLHETKNDKEFSVHAVTSLMKRLRAKLPNEVIHNIYGSGYKIIPIEGHHHHHH,soluble
3,MSLRIVFKIGSNLLETDEGDIDLSFLSKLAEGIKKLHSFGDKVLIVSSGAVLSGAKKLGIKEKPKDLTLKQALASVGQSYLMHLYDTIFSNYGLKVGQVLLTKDVFSKEKEERFKNAKSTLEKLLELGVVPVINENDAVAVEELVFGDNDFLAVYVSFMVNADLLVIFSSAGGLKDDKDRIIPVVEDIEKVFKYVRGTGTSFGTGGMRSKLEATRLATTLNIPVIITSKEENILDLRNLKTKGTLFKPSKRKLRNALKVIATLEEPKGIIVVDRGAQEALKAGKSLLPAGVVSVQGNFKRGDVVSIQNEEGLIIGKGKVNFSSEEIEKIKGLKTSEVRKLLNTTKDEVIHRDNMVIFLEGHHHHHH,not soluble
4,MSLRKFSLIMATYGRKDEVGCFLESLMNSNYPMDKVEVIIVDQNKEIDLEPIISKYKEKIKVVHIKSNERGLALNRNKGLEIATGDIIAFPDDDCEYLVDTLNIVNNYFENEHCDLLMGRIVERNGEDSLREWPKEKIEINKNNFYTKCSSVTMFLDSKKCFVKFNDQLGAGKYFGACEDADLIYKNCKKGLKIIYNPELQIYHPHYDSNSNMDDKKIYSYGLGFGAMVKSNFDFSMLILFIKAEGYHFLKSLIYLITFKTTKSKRSWLAFKSRIKGFFEYKNEGHHHHHH,soluble
5,MSLRQLLQKRAMQSPNLEALVGGKKRYSFQQYNERVNQLAHYLLHNGVQRGDRIGILCKNNHPFPSVMMASLKIGAVFIPLNHQLTVYELETIVKEAKLKVLVIDEEFSEVLLNVDAVKEIPYVIQTTKEGFGSFELELQKQPTTEPNVEVHEEDDAIYLFTSGTTGQAKACVIGHKNLHHYFAEIAGQREIPAGERFLSVHPLFHMSGVLSILNCIYHGVTMIFLADSNPAIIWDKIEEEKITTMLAFPAVYSYMLDELNKKERNISTFKVAQSGGTKVPETLIQKYMEKGIYMVQGYGSTEGWVVTSWHPMMGKEKMSSVGKTLKNVEVKIVHPETGHELTTNEVGEIHVKSPYMFKGYWNNEKATKKVVKDNWFNMGDAGMIDDDGFLHIMGRYKDVIIRGGDNVYPDQVEDVIHEIQGVLEVAVVGVPDDFWGEVPRAYIVKDGETTLTEESIIQYCKEKLASYKIPEVVFIDELPKNALGKVLKRELRDVVLVKEGHHHHHH,soluble
6,MSLRTNEHNFHNIEEEIKHVAVYLRLSRGEDESELDNHKTRLLNRCELNNWSYELYKEIGSGSTIDDRPVMQKLLTDVEKNLYDAVLVVDLDRLSRGNGTDNDRILYSMKVSETLIVVESPYQVLDANNESDEEIILFKGFFARFEFKQINKRMREGKKLAQSRGQWVNSVTPYGYIVNKTTKKLTPSEEEAKVVIMIKDFFFEGKSTSDIAWELNKRKIKPRRATEWRSSSIANILQNEVYVGNIVYNKSVGNKKPSKSKTRVTTPYRRLPEEEWRRVYNAHQPLYSKEEFDRIKQYFECNVKSHKGSEGHHHHHH,soluble
7,MSLSAFDAFPLGQPAFVTNILDRAAHLRRDDEKLFALEQKPSSRAYVVHRDSLLVKREGENVRALLGIDEALKCGANPGTIFLGLRDGAAVFGMGLSQAAAEKLVGREDYSLTELRGMAMQGAIPPDELSAIAMAKSMVSWHQRHGYCANCGTRSAMKEGGWKRDCPACKAEHFPRTDPVVIMLVASGEKCLLGRQKQFPPGMFSCLAGFVEAAETIEDAVRREILEESGIRCTDVQYYMTQPWPYPSSLMIGCSARALNEDIVVDHSELEDARWFTREEAALMLTRTHPDGLAGPHPFAIAHHLLGRWVHDKSGEGHHHHHH,soluble
8,MSLSATNTNLHDLLARRIPGHALEQPFYTSPEIYQQDLEHIFYREWLYAIPACQLVKPGSYATLRIGAYNIVIVKGRDGEIRAFHNSCRHRSSIVCKAREGQVAKLVCPYHQWTYDLDGKLIWANSMGPDFDPTQHGLRSVALRNLKGLIYICLADTPPDFEAFARAAEPYLGVHDLQDAKVAYSSSIIEKGNWKLVWENNRECYHCSGNHPALCRSFPLDPEVAGVSADGSISQRIQDHFDACAAAGAPAQFLLGGDGQFRLARMPLQETAVSYTMDGKAAVARQLGRVAKPDAGSLLVFHYPSTWNHFLPDHSLTFRVTPISPTETEVTTTWLVHKDAVEGVDYDLQHLTEVWIATNDEDREIVETNQEGIFSPAYIPGPYSPDWESGVIQFIDWYAAWMERSLAPSRMAAEEGHHHHHH,soluble
9,MSLSDAAISCSWKPFFRELATRLLDYEDRQPELLAALRDASISINHDEGEPLREVDPFTFFSLVLKHTSDATALPLFARVGAALGVQAPSPTDLIGVPWSNPMNAWFFAYRSQRQPGDVPLLWRLARQAVAGILDAQTFEDALKIRKVALPKLTQGLFWLNPERFLALNAVNVPYLQARGLQAAGQVQTLAEYETVLEAAHKLNPDFAALSHRAWLNSQTAALEGNHFPFARYQADAQEFAGDKVKGNLVLDRRYAPLLLDLMAGEWETLKPSRSPYSGREQLAVKVALGGGVKTDGGAFARALLFADDSGFEYVPFSAGLTLEAGLPDGRGDGPRQALQEPARQHTLLTALNAPLPAGLEATLTLNTDFGALFLLPLGPGREAEAAQQLQQYMSGVGRSRRLRVGLSLLPEHLESDKFPELLDAALTYLDALVDLLDGLMRPSEETSTEEIGVPGTRPVAPTPAAFVPVPGVPLNQILYGPPGTGKTYRVVDEALSVLDPAFLSAHPGSEGRAARKARYDELAAQGQISFVTFHQSFGYEDFIEGIKPVMSGGALSYVLQDGVFLEAVRSAGGALAPAAPEAGPSTETQPLVRPDAQVWRMYIDGTAPVSRIRDLSLGRGELRMGSYGKPPRDLTQAGVEDLSGRQLLFKESVRVGDLMLLATAADRIGAVGVVTGDYRFDPHSDPTFATDYAHTRSVKWLAQDLNVGATETLGKSFAPPTLQRVADVTPAQVLQALGVSTAGGETAHAPTPRPHVLIIDEINRGNISKIFGELITLLESGKRTGAPEALTVTLPLSRRPLSVPQSLYVIGTMNTADRSLTLLDAALRRRFVFRPVWPQPEVLPVLDLGGTALDLRKFLHVINDRIERLLSREQVIGHAYLLGLPATLGGVSSALRERILPLLEEYFFEDWSKIREVLGDESKAEALQFIHRSGSGPELRYRLNPEAFENIEAFTGVYAGVSDQDFPFDEGHHHHHH,soluble
10,MSLSDFLILSDPDLDTLGITTDEIQTALEAAIRAQIRATVHVAPKSALLPGDGRYVMTTLATGNSPALTVVKSVMVSPDNPARGLPGTEGVLLVQDSETGQLRALMQAGWITRMRTAGLSALVARRLGDPAARVVAFIGAGAQARAHLAALCDLFPLQRAVILGRGAENIARLSAAARARGLQAEIADNPHQAIADADLVVSSVTLDHQMTPFLDARWLKPGAFASLTDTGLPWQPDGMAALDPLYIDDLAQEAANPRPMIDPARVGGDLAALLGEDLHSTNVNRHDPSRRAGFLFRGPAIADFALAALALHRAQSLGAGRDTAWPDATREGHHHHHH,soluble
11,MSLSDGDYDYLIKFLALGDSGVGKTSVLYQYTDGKFNSKFITTVGIDFREKRVVYRASGPDGATGRGQRIHLQLWDTAGQERFRSLTTAFFRDAMGFLLLFDLTNEQSFLNVRNWISQLQMHAYCENPDIVLCGNKSDLEDQRVVKEEEAIALAEKYGIPYFETSAANGTNISQAIEMLLDLIMKRMERCVDKSWIPEGVVRSNGHASTDQLSEEKEKGACGCEGHHHHHH,soluble
12,MSLSDGYHRSPSSRVPRIEGCQHTADASPSDATGPRRHAMTAHNREPVDYLAGEMPLHRYCAHHAAQTPERIALLWYGRTICWRELDQLSTRLAVQFQRLGVARGDRVALFLQNCPQAILAHLAAAKLGAIAVPCLPLSRQHELRDQLTDCGAKILIAAADLMPIVDAARPGTAIATVITTRYADLQPAQPACRKALAVPPELIAADAASAPAGRGQAGSGQFDLMQLLAEPVDVAERNAVAAIQVDLDEVALMIYTSGTTGRPKGAMLTHRNALYKTAVTVQMSGIHAADVLLAAAPLSHIAGMLMGMNLMLYAGAPTILLFRFDPLAVLQAIDRYCVTWWYSMTPMNLAVMAHPEAGQYRMASLVNNPCTSFGAPLTEAIADRWRAFAGPKCRIYEAAYGLSETHTCDTVTPPDAPRWGWHGKIVPQTEVRIVDPRTGTALPPGRSGEITIRSPGVFRGYWRRDEATRAALQDGFLRTGDIGQVSPDGYLQWQGRLKELIKVSGYSVFPEDVEALLSRHPAIRQVAVTPLPDPDKGEVVCAHVVRMSGTALTEAELIAWSRENMAPYKVPRRVRFHDALPATVTGKILRRLLREEAAVAEGHHHHHH,soluble
13,MSLSDKHIKQTVLNSNDNRISPSHVCDIFLPQNGLSERWKAFTRRRFVIAETGFGTGLSFLTACQQFTQFRQANPTATVKELHFISFEQHPLTKSDLIKATEKWPEFAHFSQQLHAHYPPAVSDCHRIVLDEGLITLDLWFGNITDSMPQVWTNDDGIVDAWFTDGFATESNAALLKSLTIINSIAILARENSTIHAITYHQGNQQDVLEQSLTEAGFDMTESHNEGHHHHHH,soluble
14,MSLSDKIRIGMTVSSTGSFVLASQSGVRGVEVWVDDVNRRGGIEIKGKKYPVELVKLDDRSDKQMVTRVYERLIVDEKVDLVFAPFGSTLTAAAGTVTERLGKYMMVWSAASDDLYKQGFKYMVSGTQMPVSAMLRAPMALAGKLGVKKAAILYSDEPFPAGLADGGRAQAAKNGIDVVLYEKYPKGQKDFSTLLQKAKAAGADALVPTSYEGDLISMTRQMKQLDINFPYTFMVYASTPQFQAIGADSNYIFSHTNYHPAINWKVNAGLTREQFGKAYDTLFPKAEFPPDFQTALAYGAGALTEEIIKKAGATDAAALKQASMDLSDKVTVMAGPYAIDETGKQLQMPFPVVQLLPGKGMVPVYPEDVAVEKAVYPAPAWNKAKGIITITTDPNSSSVDKLAAALEHHHHHH,soluble
15,MSLSDQSQIIAGFTLWHLSLPVTARRDHGIGSVAGAVEVVVLRLQADSGAVGYGEASPWVVFTGSVEATYAALDRYLRPLVLGRAVGDHAAIMEDARAAVAHCTEAKAALDTALYDLRARIAGVPVWALLGGRCRDRIPLSCSIADPDFDKDLALMQRLQDDDVRIIKLKTGFKDHAFDMMRLERLRADFPAFDIRVDYNQGLHHDVALARVRDVATFKPTFIEQPVKAHLRGLMARIRDAVDVPLLADESIFGPEDMAEHPEIADGVSIKIMKSGGLTRAQTVARMAAARGLSAYGGDMFEAGLAHLAGAHMIAATPEITLGCEFYQATYFLCDDILAAPFPVADGHVLVPDTPGLGVDVDEDALARFAVAREGHHHHHH,soluble
